This assay concerns the target T1, HLA-B*08:01 (human).
T1 construct: MHC monomer first loaded with a UV-sensitive peptide that is cleaved by UV light and exchanged for the test peptide
The experiment in a line: UV peptide exchange ELISA. From the text:
Candidate peptides for T cell based therapies according to the present invention were further tested for their MHC binding capacity (affinity). The individual peptide-MHC complexes were produced by UV-ligand exchange, where a UV-sensitive peptide is cleaved upon UV-irradiation and exchanged with the peptide of interest as analyzed. Only peptide candidates that can effectively bind and stabilize the peptide-receptive MHC molecules prevent dissociation of the MHC complexes. To determine the yield of the exchange reaction, an ELISA was performed based on the detection of the light chain (β2m) of stabilized MHC complexes. The assay was performed as generally described in Rodenko et al. (Rodenko et al., 2006).
96 well MAXISorp plates (NUNC) were coated over night with 2 ug/ml streptavidin in PBS at room temperature, washed 4× and blocked for 1 h at 37° C. in 2% BSA containing blocking buffer. Refolded HLA-A*02:01/MLA-001 monomers served as standards, covering the range of 15-500 ng/ml. Peptide-MHC monomers of the UV-exchange reaction were diluted 100-fold in blocking buffer. Samples were incubated for 1 h at 37° C., washed four times, incubated with 2 ug/ml HRP conjugated anti-β2m for 1 h at 37° C., washed again and detected with TMB solution that is stopped with […]. Absorption was measured at 450 nm. Candidate peptides that show a high exchange yield (preferably higher than 50%, most preferred higher than 75%) are generally preferred for a generation and production of antibodies or fragments thereof, and/or T cell receptors or fragments thereof, as they show sufficient avidity to the MHC molecules and prevent dissociation of the MHC complexes.
In general terms: In an ELISA, binding on a coated surface is turned into a signal by an enzyme label.
As for EPVIRTVSI [EPVIRTVSI (SEQ ID NO: 127)], the peptide exchange yield is 50 to 75%. In turn, MRSSYIREL [MRSSYIREL (SEQ ID NO: 150)] displayed a peptide exchange yield of 20 to 50%.

For LPAPYQHQL [LPAPYQHQL (SEQ ID NO: 130)], the peptide exchange yield fell in the range of 20 to 50%. In turn, IANLRVKNI [IANLRVKNI (SEQ ID NO: 103)] showed a peptide exchange yield of 50 to 75%.

Molecule FPLVTPLL [FPLVTPLL (SEQ ID NO: 125)] registered a peptide exchange yield of 50 to 75%. The molecule ALKLKVAEL [ALKLKVAEL (SEQ ID NO: 1)] showed a peptide exchange yield of 20 to 50%. The molecule VLKTLQEL [VLKTLQEL (SEQ ID NO: 154)] had a peptide exchange yield of 20 to 50%. Molecule QATPRVRIL [QATPRVRIL (SEQ ID NO: 133)] yielded a peptide exchange yield of 20 to 50%. FNKLVTEL [FNKLVTEL (SEQ ID NO: 152)]: the peptide exchange yield was in the range of 20 to 50%. The molecule IAVDKPITL [IAVDKPITL (SEQ ID NO: 140)] yielded a peptide exchange yield of 20 to 50%. Turning to DQRSRATL [DQRSRATL (SEQ ID NO: 134)], the peptide exchange yield was 20 to 50%. In turn, EPFTRPVL [EPFTRPVL (SEQ ID NO: 13)] had a peptide exchange yield of 20 to 50%.

Take YNLIYSMCL [YNLIYSMCL (SEQ ID NO: 142)]: the peptide exchange yield lay within 50 to 75%. In turn, DFYLRSSAF [DFYLRSSAF (SEQ ID NO: 12)] had a peptide exchange yield of 50 to 75%. Consider IPASHPVLTL [IPASHPVLTL (SEQ ID NO: 109)], for which the peptide exchange yield lay within 20 to 50%. On to LPASFPAVL [LPASFPAVL (SEQ ID NO: 155)], for which the peptide exchange yield is 20 to 50%. Regarding VGPNGFKSL [VGPNGFKSL (SEQ ID NO: 117)], the peptide exchange yield is 20 to 50%. In turn, HLHLLETSI [HLHLLETSI (SEQ ID NO: 106)] had a peptide exchange yield of 20 to 50%. For the molecule SLLPFTLSF [SLLPFTLSF (SEQ ID NO: 123)], the peptide exchange yield is 20 to 50%.

Regarding EYLETKRLAF [EYLETKRLAF (SEQ ID NO: 135)], the peptide exchange yield lay within 10 to 20%. For LLKKIEHA [LLKKIEHA (SEQ ID NO: 15)], the peptide exchange yield fell in the range of 20 to 50%.

Molecule DADLREQAL [DADLREQAL (SEQ ID NO: 143)] showed a peptide exchange yield of 20 to 50%. The figure for DAMTKHTL [DAMTKHTL (SEQ ID NO: 110)] is 50 to 75%; for DRHLTNRVL [DRHLTNRVL (SEQ ID NO: 151)] it is 20 to 50%. Consider FAFGEPREL [FAFGEPREL (SEQ ID NO: 104)], for which the peptide exchange yield lay in the range of 20 to 50%. In turn, NALDPLSAL [NALDPLSAL (SEQ ID NO: 112)] yielded a peptide exchange yield of 20 to 50%. VQWKPPAL [VQWKPPAL (SEQ ID NO: 137)] returned a peptide exchange yield of 20 to 50%. HRILRLPAL [HRILRLPAL (SEQ ID NO: 129)] yielded a peptide exchange yield of 50 to 75%. The value for ESSAQPTAL [ESSAQPTAL (SEQ ID NO: 122)] was 20 to 50%.

MRILKRFLAC [MRILKRFLAC (SEQ ID NO: 115)] showed a peptide exchange yield of 20 to 50%. Take AQRSEMVTL [AQRSEMVTL (SEQ ID NO: 120)]: the peptide exchange yield was 20 to 50%. In the case of MSTKTTSI [MSTKTTSI (SEQ ID NO: 131)], the peptide exchange yield lay within 20 to 50%. The figure for AQLKLVAL [AQLKLVAL (SEQ ID NO: 141)] is 20 to 50%; for MAFVKHLL [MAFVKHLL (SEQ ID NO: 118)] it is 50 to 75%. For FQTAHFYL [FQTAHFYL (SEQ ID NO: 146)], the peptide exchange yield was 50 to 75%. HAMDGASHL [HAMDGASHL (SEQ ID NO: 147)] came in with a peptide exchange yield of 20 to 50%.

In turn, IEQIRAVL [IEQIRAVL (SEQ ID NO: 144)] gave a peptide exchange yield of 20 to 50%. The molecule YGRIGISLF [YGRIGISLF (SEQ ID NO: 139)] returned a peptide exchange yield of 20 to 50%. With HSWTRTSV [HSWTRTSV (SEQ ID NO: 124)], the peptide exchange yield is 50 to 75%.

In turn, GAGLRITAPL [GAGLRITAPL (SEQ ID NO: 111)] showed a peptide exchange yield of 20 to 50%.

Take TQKSVQVL [TQKSVQVL (SEQ ID NO: 149)]: the peptide exchange yield lay in the range of 20 to 50%.

Consider MAPLKMLAL [MAPLKMLAL (SEQ ID NO: 11)], for which the peptide exchange yield lay in the range of 50 to 75%. For IPIQAHQI [IPIQAHQI (SEQ ID NO: 132)], the peptide exchange yield is 50 to 75%. On to KMFYRKDVM [KMFYRKDVM (SEQ ID NO: 136)], for which the peptide exchange yield was 50 to 75%. Molecule ELILKRCL [ELILKRCL (SEQ ID NO: 14)] showed a peptide exchange yield of 50 to 75%. The figure for IMKKIRESY [IMKKIRESY (SEQ ID NO: 102)] is 50 to 75%. The value for MGKFKQCF [MGKFKQCF (SEQ ID NO: 10)] was 50 to 75%. Turning to YSQLSISL [YSQLSISL (SEQ ID NO: 121)], the peptide exchange yield was 20 to 50%. As for MIYRKALRL [MIYRKALRL (SEQ ID NO: 145)], the peptide exchange yield is 20 to 50%.

Take APLKMLALV [APLKMLALV (SEQ ID NO: 105)]: the peptide exchange yield is 20 to 50%. The figure for PVKPKFYL [PVKPKFYL (SEQ ID NO: 114)] is 20 to 50%; for RSYYHPTNL [RSYYHPTNL (SEQ ID NO: 108)] it is 20 to 50%; for ILKEQSSSSF [ILKEQSSSSF (SEQ ID NO: 156)] it is 20 to 50%.

For MEKGLASL [MEKGLASL (SEQ ID NO: 113)], the peptide exchange yield lay within 20 to 50%.

In turn, FQRVSSVSF [FQRVSSVSF (SEQ ID NO: 119)] came in with a peptide exchange yield of 50 to 75%. The figure for TAAEARLSL [TAAEARLSL (SEQ ID NO: 126)] is 20 to 50%; for FTQNPRVQL [FTQNPRVQL (SEQ ID NO: 116)] it is 20 to 50%; for TQHLTVATL [TQHLTVATL (SEQ ID NO: 138)] it is 50 to 75%. Take LPKGLKDWQA [LPKGLKDWQA (SEQ ID NO: 107)]: the peptide exchange yield is 20 to 50%.

Turning to HFHNRHVF [HFHNRHVF (SEQ ID NO: 128)], the peptide exchange yield was 50 to 75%. The molecule HAIPHYVTM [HAIPHYVTM (SEQ ID NO: 153)] came in with a peptide exchange yield of 20 to 50%. On to DVNPVSLQL [DVNPVSLQL (SEQ ID NO: 148)], for which the peptide exchange yield lay within 20 to 50%.

These data come from patent US20250145684A1 (IMMATICS BIOTECHNOLOGIES, published 2025).
